Assay results as given in US20100144601A1 (Janssen / Centocor, published 2010).
Residue numbers refer to the chain shown, from its start.

B1: Clone No. 6 (designed binder)
chain: LPAPKNLVVSEVTEDSLRLSWTAPDAAFDSFLIQYQESEKVGEAINLTVPGSERSYDLTGLKPGTEYTVSIYGVGGLTVIHPLSAEFTT
notes: F:G GGLTVIH
B2: Clone No. 1 (designed binder)
chain: B1 chain with V79Y, I80F
notes: F:G GGLTYFH
B3: Clone No. 2 (designed binder)
chain: B1 chain with T78S, V79D
notes: F:G GGLSDIH
B4: Clone No. 3 (designed binder)
chain: B1 chain with G75E, T78G
notes: F:G EGLGVIH
B5: Clone No. 4 (designed binder)
chain: B1 chain with T78G
notes: F:G GGLGVIH
B6: Clone No. 5 (designed binder)
chain: B1 chain with T78S
notes: F:G GGLSVIH
B7: Clone No. 7 (designed binder)
chain: B1 chain with V79Y
notes: F:G GGLTYIH
B8: Clone No. 8 (designed binder)
chain: B1 chain with V79Y, I80L
notes: F:G GGLTYLH
B9: Clone No. 9 (designed binder)
chain: B1 chain with T78S, V79Y, I80F
notes: F:G GGLSYFH
B10: Clone No. 10 (designed binder)
chain: B1 chain with V79D
notes: F:G GGLTDIH
B11: Clone No. 11 (designed binder)
chain: B1 chain with T78S, V79S
notes: F:G GGLSSIH
B12: Clone No. 12 (designed binder)
chain: B1 chain with T78R
notes: F:G GGLRVIH
B13: Clone No. 13 (designed binder)
chain: B1 chain with G76A, T78S
notes: F:G GALSVIH
B14: Clone No. 14 (designed binder)
chain: B1 chain with T78S, V79F, I80L
notes: F:G GGLSFLH
B15: Clone No. 15 (designed binder)
chain: B1 chain with G75I, G76T, L77H, T78M, V79R, I80D, H81M
notes: F:G ITHMRDM
B16: Clone No. 34 (designed binder)
chain: B1 chain with I80L
notes: F:G GGLTVLH
B17: Clone No. 35 (designed binder)
chain: B1 chain with T78A, V79Y, I80L
notes: F:G GGLAYLH
B18: Clone No. 36 (designed binder)
chain: B1 chain with T78S, I80V
notes: F:G GGLSVVH
B19: Clone No. 68 (designed binder)
chain: B1 chain with G75W, G76H, L77G, T78M, V79I, I80R, H81P
notes: F:G WHGMIRP
B20: Clone No. 69 (designed binder)
chain: B1 chain with G75V, G76L, L77S, T78V, V79L, I80Q, H81R
notes: F:G VLSVLQR
B21: Clone No. 70 (designed binder)
chain: B1 chain with G75E, G76W, L77R, T78V, V79Q, I80V, H81A
notes: F:G EWRVQVA
B22: Clone No. 71 (designed binder)
chain: B1 chain with T78R, V79Y, I80L
notes: F:G GGLRYLH
B23: Clone No. 72 (designed binder)
chain: B1 chain with G75M, G76L, L77K, T78S, V79F, I80A, H81S
notes: F:G MLKSFAS
B24: Clone No. 73 (designed binder)
chain: B1 chain with G75P, G76W, L77R, T78Y, V79G, I80L
notes: F:G PWRYGLH
B25: Clone No. 74 (designed binder)
chain: B1 chain with T78S, V79Y, I80L
notes: F:G GGLSYLH
B26: Clone No. 75 (designed binder)
chain: B1 chain with G75M, G76T, V79G, H81D
notes: F:G MTLTGID
B27: Clone No. 76 (designed binder)
chain: B1 chain with L77W, T78P, I80R, H81V
notes: F:G GGWPVRV
B28: Clone No. 77 (designed binder)
chain: B1 chain with G75L, G76D, T78Y, V79L, I80R, H81T
notes: F:G LDLYLRT
B29: Clone No. 78 (designed binder)
chain: B1 chain with G75R, G76L, L77T, T78A, V79L, I80N, H81A
notes: F:G RLTALNA
B30: Clone No. 79 (designed binder)
chain: B1 chain with G76I, L77P, T78R, V79W, I80V, H81R
notes: F:G GIPRWVR
B31: Clone No. 80 (designed binder)
chain: B1 chain with G75R, G76V, L77S, T78E, V79E, I80Y, H81G
notes: F:G RVSEEYG
B32: Clone No. 81 (designed binder)
chain: B1 chain with G75V, G76L, L77S, T78L, V79W, I80M, H81I
notes: F:G VLSLWMI
B33: Clone No. 82 (designed binder)
chain: B1 chain with G75W, G76M, L77V, T78N, V79K, I80V, H81L
notes: F:G WMVNKVL
B34: Clone No. 83 (designed binder)
chain: B1 chain with G75D, G76V, L77T, T78E, I80Y, H81M
notes: F:G DVTEVYM
B35: Clone No. 84 (designed binder)
chain: B1 chain with G75S, G76V, L77R, T78M, V79S, I80S, H81V
notes: F:G SVRMSSV
B36: Clone No. 85 (designed binder)
chain: B1 chain with G75L, G76W, L77W, V79L, I80R, H81K
notes: F:G LWWTLRK
B37: Clone No. 86 (designed binder)
chain: B1 chain with G75W, G76A, L77H, T78L, V79L, I80R, H81D
notes: F:G WAHLLRD

Molecular target: T1, recombinant TNFα, biotinylated (human, UniProt P01375 77-233, biotinylated using sulfo-NHS-LC-Biotin (sites not given))
T1 construct: human is stated in the abstract and claims; also called biotinylated TNFα; human TNFα
Experiment: ELISA of lysates on biotinylated TNFα on streptavidin plate
Description: Maxisorp plates (Nunc) were coated with 0.5 μg of streptavidin, washed with TBST, and bound to 100 ng of biotinylated TNFα or 200 ng of biotinylated human serum albumin before being blocked with Starting Block (Thermo Scientific). Clarified lysates diluted 1:1 in Starting Block were added to the plates and allowed to bind for 1 hour before being washed with TBST. Detection of bound Tencon was accomplished using an anti-HIS-HRP antibody (Qiagen).

T1 sequence (P01375 77-233 limits assumed): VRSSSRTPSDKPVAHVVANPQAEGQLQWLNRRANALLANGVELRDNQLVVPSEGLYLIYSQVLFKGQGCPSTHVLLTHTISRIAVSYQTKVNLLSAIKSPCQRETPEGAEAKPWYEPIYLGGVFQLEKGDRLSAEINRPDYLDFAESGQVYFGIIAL

| binding result | Binder |
| --- | --- |
| binds | B1 |
| binds | B2 |
| binds | B3 |
| binds | B4 |
| binds | B5 |
| binds | B6 |
| binds | B7 |
| binds | B8 |
| binds | B9 |
| binds | B10 |
| binds | B11 |
| binds | B12 |
| binds | B13 |
| binds | B14 |
| binds | B15 |
| binds | B16 |
| binds | B17 |
| binds | B18 |
| binds | B19 |

| binding result | Binder |
| --- | --- |
| binds | B20 |
| binds | B21 |
| binds | B22 |
| binds | B23 |
| binds | B24 |
| binds | B25 |
| binds | B26 |
| binds | B27 |
| binds | B28 |
| binds | B29 |
| binds | B30 |
| binds | B31 |
| binds | B32 |
| binds | B33 |
| binds | B34 |
| binds | B35 |
| binds | B36 |
| binds | B37 |
